B1: Pistol ribozyme (parent)
chain: GGGUCGUUGUUCCAUAAUCGCGUGGAUAUGGCACGCAAGUUUCUACCGGGCACCGUAAAUGUCCGACUGGAGCCGUUCGGGCGGCUAUAAACAGACCUCAGGCCCGAAGCGUGGCGGCACCUGCCGCCGGUGGUAAAAAAGAUCGGAAGAGCACACGUCU

Variants of: B1
Test: aptazyme ON/OFF ratio, guanine; higher = stronger switching; co-transcriptional cleavage with and without guanine

Going from G9C U10A C12A C13G to G9C U10A C12A C13A, the “aptazyme ON/OFF ratio” value rises from 1.16 to 1.21.

Compared with G9C U10A C12A C13U, G9C U10A U11C C12A C13U is higher in “aptazyme ON/OFF ratio” value: 1.23 for the first, 1.29 for the second.

Compared with G9C U10A U11C C12A C13G, G9C U10A U11C C12A C13A is higher in “aptazyme ON/OFF ratio” value: 1.18 for the first, 1.3 for the second.

Going from G9U U10A C12U C13U to G9U U10A C12U C13A, the “aptazyme ON/OFF ratio” value falls from 1.06 to 0.769.

Going from G9U U10A C12U C13G to G9C U11C C12A C13G, the “aptazyme ON/OFF ratio” value falls from 1.1 to 1.09.

Going from G9C U11C C12A C13U to G9C U11C C12A C13A, the “aptazyme ON/OFF ratio” value falls from 1.16 to 1.12.

Compared with G9C U11A C12G C13G, G9C U11A C12G C13A is lower in “aptazyme ON/OFF ratio” value: 1.24 for the first, 1.2 for the second.

First: G9C U11A C12G C13U
Second: G9C U10C U11A C12A
The “aptazyme ON/OFF ratio” value of the first is higher: 1.22 for the first, 1.07 for the second.

First: G9C U10C U11A C12U
Second: G9C U10C U11A C12G
The “aptazyme ON/OFF ratio” value of the first is lower: 1.13 for the first, 1.14 for the second.

Compared with G9C U10G U11G, G9C U10G U11A is lower in “aptazyme ON/OFF ratio” value: 1.09 for the first, 1.08 for the second.

First: G9C U10G U11C
Second: G9C U10G C12A
The “aptazyme ON/OFF ratio” value of the first is lower: 1.06 for the first, 1.3 for the second.

First: G9C U10G C12G
Second: G9C U10G C12U
The “aptazyme ON/OFF ratio” value of the first is lower: 1.19 for the first, 1.47 for the second.

G9U U10A C13A and G9U U10A C13G are the same in “aptazyme ON/OFF ratio” value: 1.27 for the first, 1.27 for the second.

Going from G9U U10A C13U to G9C U10C U11G C12A C13G, the “aptazyme ON/OFF ratio” value falls from 1.54 to 1.03.

Compared with G9C U10C U11G C12A C13U, G9C U10C U11G C12A C13A is higher in “aptazyme ON/OFF ratio” value: 1.02 for the first, 1.04 for the second.

Compared with G9U U10A U11G C12A C13U, G9U U10A U11G C12A C13A is lower in “aptazyme ON/OFF ratio” value: 1.25 for the first, 1.14 for the second.

First: G9U U10A U11G C12A C13G
Second: G9U U10A U11A C13U
The “aptazyme ON/OFF ratio” value of the first is higher: 1.37 for the first, 1.25 for the second.

Going from G9U U10A U11A C13G to G9U U10A U11A C13A, the “aptazyme ON/OFF ratio” value rises from 1.17 to 1.38.

Compared with G9C U10G U11A C12A C13U, G9C U10G U11A C12A C13G is lower in “aptazyme ON/OFF ratio” value: 1.52 for the first, 1.06 for the second.

Going from G9C U10G U11A C12A C13A to G9C C12U, the “aptazyme ON/OFF ratio” value falls from 1.23 to 1.07.

Compared with G9C C12G, G9C C12A is higher in “aptazyme ON/OFF ratio” value: 1.35 for the first, 1.38 for the second.

First: G9C U10G U11A C12U C13G
Second: G9C U10G U11A C12U C13U
The “aptazyme ON/OFF ratio” value of the first is higher: 1.09 for the first, 1.08 for the second.

First: G9C U10G U11A C12U C13A
Second: G9C U10A U11A C13G
The “aptazyme ON/OFF ratio” value of the first is higher: 1.09 for the first, 1.05 for the second.

Compared with G9C U10A U11A C13U, G9C U10A U11A C13A is lower in “aptazyme ON/OFF ratio” value: 1.32 for the first, 1.22 for the second.

Compared with G9C U10G C12G C13U, G9C U10G C12G C13A is higher in “aptazyme ON/OFF ratio” value: 1.05 for the first, 1.22 for the second.

Going from G9C U10G C12G C13G to G9U U10A U11G C12U, the “aptazyme ON/OFF ratio” value rises from 1.14 to 1.27.

Compared with G9U U10A U11G C12G, G9U U10A U11G C12A is lower in “aptazyme ON/OFF ratio” value: 2.12 for the first, 1.79 for the second.

Compared with G9U U10A U11C C12G C13A, G9U U10A U11C C12G C13G is lower in “aptazyme ON/OFF ratio” value: 1.3 for the first, 0.978 for the second.

Going from G9U U10A U11C C12G C13U to G9C U10C C12G C13U, the “aptazyme ON/OFF ratio” value falls from 1.47 to 1.09.

First: G9C U10C C12G C13G
Second: G9C U10C C12G C13A
The “aptazyme ON/OFF ratio” value of the first is higher: 1.09 for the first, 1.06 for the second.

Compared with G9U U10A U11C, G9U U10A U11G is higher in “aptazyme ON/OFF ratio” value: 1.33 for the first, 2.39 for the second.

First: G9U U10A U11A
Second: G9C U10A U11G C12G C13G
The “aptazyme ON/OFF ratio” value of the first is higher: 2.34 for the first, 1.13 for the second.

First: G9C U10A U11G C12G C13U
Second: G9C U10A U11G C12G C13A
The “aptazyme ON/OFF ratio” value of the first is lower: 1.16 for the first, 1.19 for the second.

Compared with G9C U10A U11C C12G, G9C U10A U11C C12A is higher in “aptazyme ON/OFF ratio” value: 1.18 for the first, 1.48 for the second.

Compared with G9C U10A U11C C12U, G9C U10C U11G C12U C13U is lower in “aptazyme ON/OFF ratio” value: 1.13 for the first, 1.06 for the second.

First: G9C U10C U11G C12U C13A
Second: G9C U10C U11G C12U C13G
The “aptazyme ON/OFF ratio” value of the first is lower: 1.04 for the first, 1.05 for the second.

Compared with G9C U10A U11C C12G C13G, G9C U10A U11C C12G C13U is lower in “aptazyme ON/OFF ratio” value: 1.44 for the first, 1.24 for the second.

Going from G9C U10A U11C C12G C13A to G9C U11C, the “aptazyme ON/OFF ratio” value falls from 1.32 to 1.18.

Compared with G9C U11A, G9C U11G is higher in “aptazyme ON/OFF ratio” value: 1.78 for the first, 2.2 for the second.

First: G9C U10G U11G C12G C13G
Second: G9C U10G U11G C12G C13A
The “aptazyme ON/OFF ratio” value of the first is higher: 1.13 for the first, 1.1 for the second.

Going from G9C U10G U11G C12G C13U to G9C U10A C12U C13A, the “aptazyme ON/OFF ratio” value rises from 1.1 to 1.24.

With G9C U10A C12U C13U the “aptazyme ON/OFF ratio” value was 1.07.
